Blank lines part the entries; values can stand above or below the molecule they belong to.
What was measured:
[1] = molecular target: Vascular endothelial growth factor (VEGF) (Homo sapiens (Human)) (UniProt P15692); experiment: surface plasmon resonance (BIAcore), sFlt-1 construct immobilized on the chip, VEGF165 injected at 0.2 to 15 nM; the column head prints KD (nM), but the printed Kd/Ka (1.22e-3 / 2.71e6) gives about 4.5e-10 M
[2] = molecular target: Vascular endothelial growth factor (VEGF) (Homo sapiens (Human)) (UniProt P15692); experiment: surface plasmon resonance (BIAcore), sFlt-1 construct immobilized on the chip, VEGF165 injected at 0.2 to 15 nM; column Ka
[3] = molecular target: Vascular endothelial growth factor (VEGF) (Homo sapiens (Human)) (UniProt P15692); experiment: surface plasmon resonance (BIAcore), sFlt-1 construct immobilized on the chip, VEGF165 injected at 0.2 to 15 nM; column Kd
[4] = molecular target: T1, Vascular endothelial growth factor (VEGF) (Homo sapiens (Human), UniProt P15692 181-395); experiment: solution binding assay: serially diluted conditioned medium with soluble receptor mixed with 10 pM VEGF, unbound VEGF measured by ELISA
T1 construct: also called VEGF165; VEGF A
T1 sequence: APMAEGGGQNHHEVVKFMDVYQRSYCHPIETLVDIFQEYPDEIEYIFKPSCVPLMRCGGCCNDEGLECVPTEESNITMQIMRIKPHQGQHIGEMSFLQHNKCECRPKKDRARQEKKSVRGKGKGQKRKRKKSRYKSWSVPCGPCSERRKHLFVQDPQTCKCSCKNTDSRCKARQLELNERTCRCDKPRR
Description: FIG. 11. VEGF “in vitro” binding assay. Conditioned media from 293 cells containing known concentrations of both D2-9Gly-Fc and Flt-1 D(1-3) control soluble receptors (ranging in concentrations from 0.29-150 pM) were serially diluted and mixed with 10 pM VEGF. The amount of unbound VEGF was then measured by ELISA. D2-9Gly-Fc binds VEGF with higher affinity than all other constructs. “n” represents the number of independent experiments (transfection and binding assay).
Briefly, conditioned media containing known concentrations of soluble receptor (ranging in concentrations from 0.29-150 pM) were serially diluted and mixed with 10 pM VEGF. The amount of unbound VEGF was then measured by ELISA. […] D2-CH3 has the lowest affinity to bind VEGF (FIG. 11).

B1: D2-9Gly-CH3 (other)
chain: PFVEMYSEIPEIIHMTEGRELVIPCRVTSPNITVTLKKFPLDTLIPDGKRIIWDSRKGFIISNATYKEIGLLTCEATVNGHLYKTNYLTHRQTGGGGGGGGGGQPREPQVYTLPPSREEMTKNQVSLTCLVKGFYPSDIAVEWESNGQPENNYKTTPPVLDSDGSFFLYSKLTVDKSRWQQGNVFSCSVMHEALHNHYTQKSLSLSPGK
notes: domain: Flt-1 domain 2; Conditioned medium of transfected 293 cells
IC50 (read off the curve) [4]: ~0.5 pM

B2: D2-9Gly-Ex3/CH3 (other)
chain: PFVEMYSEIPEIIHMTEGRELVIPCRVTSPNITVTLKKFPLDTLIPDGKRIIWDSRKGFIISNATYKEIGLLTCEATVNGHLYKTNYLTHRQTGGGGGGGGGPSCVPLMRCGGCCNGQPREPQVYTLPPSREEMTKNQVSLTCLVKGFYPSDIAVEWESNGQPENNYKTTPPVLDSDGSFFLYSKLTVDKSRWQQGNVFSCSVMHEALHNHYTQKSLSLSPGK
notes: as for B1
IC50 (read off the curve) [4]: ~0.9 pM

Next, values leading:

Kd [1]: 448 pM
kon [2]: 2.71e+06 M⁻¹ s⁻¹
koff [3]: 0.00122 s⁻¹
Molecule: rFlt-1(Fc)(R&D) (from UniProt P17948-2) (Fc fusion)

IC50 (read off the curve) [4]: ~1 pM
B3: D(1-3) (receptor, human (by the accession given in p-0034), UniProt P17948 27-328, looked up)
soluble receptor fragment: SKLKDPELSLKGTQHIMQAGQTLHLQCRGEAAHKWSLPEMVSKESERLSITKSACGRNGKQFCSTLTLNTAQANHTGFYSCKYLAVPTSKKKETESAIYIFISDTGRPFVEMYSEIPEIIHMTEGRELVIPCRVTSPNITVTLKKFPLDTLIPDGKRIIWDSRKGFIISNATYKEIGLLTCEATVNGHLYKTNYLTHRQTNTIIDVQISTPRPVKLLRGHTLVLNCTATTPLNTRVQMTWSYPDEKNKRASVRRRIDQSNSHANIFYSVLTIDKMQNKDKGLYTCRVRSGPSFKSVNTSVHI
notes: soluble fragment, Ig-like domains 1-3; made in conditioned medium of 293 cells; also called Flt-1 D(1-3) control soluble receptor
